Here are results for four molecules from article PMC7198388, “Radiohybrid Ligands: A Novel Tracer Concept Exemplified by ^18F- or ^68Ga-Labeled rhPSMA Inhibitors” (Journal of Nuclear Medicine, 2020).

The test system of one data set is LNCaP cells. Description: Internalization into LNCaP cells, normalized to (125I-I-BA)KuE. It is filed as cell-based, human. The note with it: LNCaP cells 1.25 x 10^5/well, 1 h, 37°C, ligand 0.5 nM/well; % of specific internalization of (125I-I-BA)KuE; 68Ga-19F or 18F free-chelator form; mean ± SD, n = 3. As for the experimental part: Internalization studies were carried out according to a previously published procedure (1). Briefly, LNCaP cells were harvested 24 ± 2 hours before the experiment and seeded in poly -L-lysine coated 24-well plates […]
After removal of the culture medium, the cells were washed once with 500 µL DMEM -F12 (5% BSA) and left to equilibrate for at least 15 min at 37 °C in 200 µL DMEM-F12 (5% BSA). Each well was treated with either 25 µL of either DMEM-F12 (5% BSA, control) or 25 µL of a 100 µM PMPA (2-(Phosphonomethyl)-pentandioic acid, Tocris Bioscience, Bristol, UK) solution in PBS, for blockade. Next, 25 µL of the radioactive-labelled PSMA inhibitor (5.0 nM in PBS) was added and the cells were incubat ed at 37 °C for 60 min. The experiment was terminated by placing the 24 -well plate on ice for 3 min and consecutive removal of the medium. Each well was carefully washed with 250 µL of ice-cold HBSS. Both fractions from the first steps, representing the amount of free radioligand, were combined. Removal of surface bound activity was accomplished by incubation of the cells with 250 µL of ice-cold PMPA (10 µM in PBS) solution for 5 min […]
and rinsed again with another 250 µL of ice-cold PBS. The internalized activity was determined by incubation of the cells in 250 µL 1 M aqueous NaOH for at least 10 min. The obtained fractions were combined with those of the subsequent wash step with 250 µL 1 M aqueous NaOH. Each experiment (control and blockade) was performed in triplicate. Free, surface bound and internalized activity was quantified in a γ-counter. All internalization studies were accompanied by external reference studies, using […]
Data were corrected for non-specific

A further data set addresses T1, human serum albumin (Homo sapiens, UniProt P02768).
T1 construct: purchased Daicel H13H-2433
Description: HSA binding by HPLC on Chiralpak HSA column. It counts as in vitro ADME. The settings on record: affinity HPLC, 50 mM NH4OAc pH 6.9/isopropanol gradient, r.t., 0.5 mg/mL, calibrated with nine reference substances, natGa-19F form. The procedure: with water (10 mL). The purified product was eluted with 50% aqueous ethanol (2 mL), phosphate buffered saline (PBS, 1 mL) and again water (1 mL). After removing ethanol in vacuo, purity of the radiolabelled compounds was determined by radio-HPLC and radio-TLC (ITLC-SG chromatography paper, mobile phase: 0.1 M trisodium citrate and Silica gel 60 RP-18 F254s, mobile phase: 3:2 mixture (v/v) of MeCN in H2O supplemented with 10% of 2 M NaOAc solution and 1% of TFA).
6. Human Serum Albumin (HSA) Binding
HSA binding of the PSMA-addressing ligands was determined according to a previously published procedure via HPLC (7). A Chiralpak HSA column (50 x 3 mm, 5 μm, H13H-2433, Daicel, Tokyo, Japan) […]
literature, in the range of 13 to 99% (7,8). All substances, including the examined PSMA ligands, were […]
final concentration of 0.5 mg/mL.
(Northampton, United States).
Affinity determinations (IC50)
The PSMA affinity (IC50) determinations and synthesis of the radioiodinated reference ligand (((S)-1- […]
described previously (1). Briefly, the respective ligand was diluted (serial dilution 10-4 to 10-10) in Hank’s balanced salt solution (HBSS, Biochrom). In the case of metal-complexed ligands, the crude reaction mixture containing the purified metal-complexed inhibitor and remaining metal nitrate, was diluted THE JOURNAL OF NUCLEAR MEDICINE • Vol. 61 • No. 5 • May 2020 Wurzer et al.

Data set [1] is described as follows: Biodistribution in LNCaP tumor-bearing CB-17 SCID mice. The settings on record: male, mouse, in vivo, iv, 0.2 nmol, total radioactivity, 1 h p.i., i.v. tail vein, mean ± SD, n = 3 (n = 4 for rhPSMA-10). The text has this:
Mice were used for experiments when tumors had grown to a diameter of 5–10 mm (3–6 wk after inoculation).
Selected organs were removed, weighed, and measured in a γ-counter.

[2] abbreviates: read-out: Biodistribution, Adrenals.
[3] abbreviates: read-out: Biodistribution, Blood.
Where [4] appears, read: read-out: Biodistribution, Bone.
[5] abbreviates: read-out: Biodistribution, Heart.
[6] abbreviates: read-out: Biodistribution, Intestine.
[7] abbreviates: read-out: Biodistribution, Kidneys.
Where [8] appears, read: read-out: Biodistribution, Liver.
[9] abbreviates: read-out: Biodistribution, Lung.
Where [10] appears, read: read-out: Biodistribution, Muscle.
[11] abbreviates: read-out: Biodistribution, Pancreas.
The mark [12] stands for this setting: read-out: Biodistribution, Spleen.
Setting [13] is: read-out: Biodistribution, Stomach.
Where [14] appears, read: LNCaP tumor, read-out: Biodistribution, Tumor.

Read-outs that look alike come from different tables or passages of the source.

T1 sequence (P02768 25-609): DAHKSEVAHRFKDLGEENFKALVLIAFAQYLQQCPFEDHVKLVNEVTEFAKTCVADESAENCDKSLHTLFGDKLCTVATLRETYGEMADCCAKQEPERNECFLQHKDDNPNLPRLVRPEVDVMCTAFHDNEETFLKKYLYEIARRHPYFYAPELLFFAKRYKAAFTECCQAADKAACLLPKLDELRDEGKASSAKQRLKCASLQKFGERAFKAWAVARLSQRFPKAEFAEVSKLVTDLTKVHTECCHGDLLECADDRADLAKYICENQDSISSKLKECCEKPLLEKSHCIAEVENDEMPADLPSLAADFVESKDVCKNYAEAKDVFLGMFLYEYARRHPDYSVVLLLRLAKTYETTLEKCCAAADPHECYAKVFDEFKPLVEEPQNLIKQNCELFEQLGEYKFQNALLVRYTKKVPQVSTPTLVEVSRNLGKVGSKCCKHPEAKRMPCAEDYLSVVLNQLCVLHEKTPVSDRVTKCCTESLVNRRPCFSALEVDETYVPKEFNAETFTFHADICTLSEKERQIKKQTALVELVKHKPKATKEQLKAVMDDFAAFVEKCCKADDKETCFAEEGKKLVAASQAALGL

With `CC(C)(C)[Si](F)(c1ccc(C(=O)NC[C@@H](C(=O)N[C@H](CCCCNC(=O)CCCCCCC(=O)NCCCC[C@H](NC(=O)N[C@@H](CCC(=O)O)C(=O)O)C(=O)O)C(=O)O)n2cc(CNC(=O)CCP(=O)(O)CN3CCN(CP(=O)(O)CCC(=O)O)CCN(CP(=O)(O)CCC(=O)O)CC3)nn2)cc1)C(C)(C)C` [68/natGa-19/18F-rhPSMA-5, metal not drawn], the Internalization in the data set on LNCaP cells is on record as 43 ± 3 % of reference.
The same measure, in the same setting: then `CC(C)(C)[Si](F)(c1ccc(C(=O)NC[C@@H](NC(=O)CCC(C(=O)O)N2CCN(CC(=O)O)CCN(CC(=O)O)CCN(CC(=O)O)CC2)C(=O)N[C@H](CCCCNC(=O)CCCCCCC(=O)NCCCC[C@H](NC(=O)N[C@@H](CCC(=O)O)C(=O)O)C(=O)O)C(=O)O)cc1)C(C)(C)C` (some centres unmarked) [68/natGa-19/18F-rhPSMA-6, metal not drawn], with 33 ± 2 % of reference.
`CC(C)(C)[Si](F)(c1ccc(C(=O)N[C@H](CNC(=O)CCC(C(=O)O)N2CCN(CC(=O)O)CCN(CC(=O)O)CCN(CC(=O)O)CC2)C(=O)N[C@H](CCCCNC(=O)CCC(=O)NCCC[C@@H](NC(=O)CC[C@H](NC(=O)N[C@@H](CCC(=O)O)C(=O)O)C(=O)O)C(=O)O)C(=O)O)cc1)C(C)(C)C` (some centres unmarked) [68/natGa-19/18F-rhPSMA-8, metal not drawn] registered an HSA-binding with human serum albumin of 97%. In the data set with LNCaP cells, the Internalization is given as 98 ± 12 % of reference. The tissue uptake at 1 h in data set [1] (setting [2]) stood at 2.2 ± 0.8 %ID/g; in data set [1] (setting [3]), 1.7 ± 0.1 %ID/g; in data set [1] (setting [4]), 0.32 ± 0.07 %ID/g; in data set [1] (setting [5]) it was 0.93 ± 0.08 %ID/g; in data set [1] (setting [6]), 0.35 ± 0.01 %ID/g; in data set [1] (setting [7]), 82.3 ± 5.9 %ID/g. Besides, the tissue uptake at 1 h in data set [1] (setting [8]) amounted to 0.79 ± 0.17 %ID/g; in data set [1] (setting [9]) it was 1.3 ± 0.2 %ID/g; in data set [1] (setting [10]) it was 0.24 ± 0.02 %ID/g; in data set [1] (setting [11]), 0.48 ± 0.11 %ID/g; in data set [1] (setting [12]), 6.3 ± 1.5 %ID/g; in data set [1] (setting [13]), 0.42 ± 0.11 %ID/g. In addition, in data set [1] (setting [14]), the tissue uptake at 1 h stood at 6.5 ± 0.8 %ID/g.
Molecule `CC(C)(C)[Si](F)(c1ccc(C(=O)NC[C@@H](C(=O)N[C@H](CCCCNC(=O)CCC(=O)NCCC[C@@H](NC(=O)CC[C@H](NC(=O)N[C@@H](CCC(=O)O)C(=O)O)C(=O)O)C(=O)O)C(=O)O)n2cc(CNC(=O)CCP(=O)(O)CN3CCN(CP(=O)(O)CCC(=O)O)CCN(CP(=O)(O)CCC(=O)O)CC3)nn2)cc1)C(C)(C)C` [68/natGa-19/18F-rhPSMA-9, metal not drawn] displayed an HSA-binding with human serum albumin of 95%. The Internalization in the data set with LNCaP cells is given as 180 ± 12 % of reference. Besides, the tissue uptake at 1 h stood at 2.7 ± 0.2 %ID/g in data set [1] (setting [2]); 0.46 ± 0.11 %ID/g in data set [1] (setting [3]); 0.18 ± 0.05 %ID/g in data set [1] (setting [4]); 0.48 ± 0.17 %ID/g in data set [1] (setting [5]); 0.44 ± 0.34 %ID/g in data set [1] (setting [6]); 54.9 ± 3 %ID/g in data set [1] (setting [7]). In addition, the tissue uptake at 1 h is 0.42 ± 0.07 %ID/g in data set [1] (setting [8]); 0.94 ± 0.2 %ID/g in data set [1] (setting [9]); 0.19 ± 0.06 %ID/g in data set [1] (setting [10]); 0.39 ± 0.09 %ID/g in data set [1] (setting [11]); 25.4 ± 5.2 %ID/g in data set [1] (setting [12]); 0.48 ± 0.4 %ID/g in data set [1] (setting [13]). Also, the tissue uptake at 1 h in data set [1] (setting [14]) amounted to 7.2 ± 0.6 %ID/g.
